Legend:
Test in all cases: EMSA
[1] = system: ParB L282A (Pseudomonas aeruginosa (PAO1161?))
[2] = system: ParB (wild type) (Pseudomonas aeruginosa (PAO1161?)); details: EMSA: 5.6 pmol dsDNA with 10, 20, 30, 50 pmol His6-ParB, 37 °C, 15 min; buffer as in Kusiak et al. 2011 (not given); 10% native PAGE in TBE
[3] = system: ParB L286A (Pseudomonas aeruginosa (PAO1161?))
[4] = system: ParB V285A (Pseudomonas aeruginosa (PAO1161?))

Substance: parS2/3 (oligos #17/#18)
- binding signal (fold affinity vs wild-type ParB) [1]: 0.5
- binding signal (fold affinity (reference)) [2]: 1
- binding signal (fold affinity vs wild-type ParB) [3]: 2
- binding signal (fold affinity vs wild-type ParB) [4]: 0.5

Reference: PMC3542827
